The record followed here is paper PMC5068790.

The target in experiment [1] is mouse Slo1 (BK channel α subunit) (mouse) (UniProt Q08460).
Experiment [2] concerns the target Drosophila Slo1 (BK channel α subunit) (Drosophila) (UniProt Q03720).
Sequence of UniProt Q03720 (Q03720 whole entry): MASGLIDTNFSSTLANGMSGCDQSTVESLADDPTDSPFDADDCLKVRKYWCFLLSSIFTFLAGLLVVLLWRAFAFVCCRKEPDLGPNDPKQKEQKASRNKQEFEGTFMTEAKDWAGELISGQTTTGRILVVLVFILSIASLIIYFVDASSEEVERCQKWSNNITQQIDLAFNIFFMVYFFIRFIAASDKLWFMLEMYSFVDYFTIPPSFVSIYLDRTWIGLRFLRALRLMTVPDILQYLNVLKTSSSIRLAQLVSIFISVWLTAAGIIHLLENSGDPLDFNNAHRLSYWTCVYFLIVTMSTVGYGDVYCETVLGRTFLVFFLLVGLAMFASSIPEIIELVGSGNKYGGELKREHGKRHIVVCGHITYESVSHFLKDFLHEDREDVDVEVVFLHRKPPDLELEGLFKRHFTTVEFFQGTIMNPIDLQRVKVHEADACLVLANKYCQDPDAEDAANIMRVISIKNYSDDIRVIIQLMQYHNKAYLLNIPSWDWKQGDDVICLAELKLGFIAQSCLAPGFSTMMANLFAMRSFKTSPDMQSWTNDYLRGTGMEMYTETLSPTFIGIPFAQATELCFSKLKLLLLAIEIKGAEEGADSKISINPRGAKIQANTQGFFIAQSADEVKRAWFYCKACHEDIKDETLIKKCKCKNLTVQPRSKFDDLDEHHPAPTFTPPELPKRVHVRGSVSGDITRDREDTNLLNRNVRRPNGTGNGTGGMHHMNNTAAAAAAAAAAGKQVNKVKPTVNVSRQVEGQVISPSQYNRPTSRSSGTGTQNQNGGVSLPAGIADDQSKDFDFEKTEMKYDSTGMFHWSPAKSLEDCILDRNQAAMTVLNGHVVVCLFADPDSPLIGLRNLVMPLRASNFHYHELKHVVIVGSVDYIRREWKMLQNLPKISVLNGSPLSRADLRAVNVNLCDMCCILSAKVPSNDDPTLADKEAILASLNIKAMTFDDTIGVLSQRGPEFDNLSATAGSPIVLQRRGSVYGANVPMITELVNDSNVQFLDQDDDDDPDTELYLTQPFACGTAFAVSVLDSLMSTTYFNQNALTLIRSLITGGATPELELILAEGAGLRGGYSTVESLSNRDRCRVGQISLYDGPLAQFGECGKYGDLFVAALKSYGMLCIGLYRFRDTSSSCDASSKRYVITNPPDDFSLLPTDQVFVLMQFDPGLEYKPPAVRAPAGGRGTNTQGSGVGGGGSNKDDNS

Sequence of UniProt Q08460 (Q08460 whole entry): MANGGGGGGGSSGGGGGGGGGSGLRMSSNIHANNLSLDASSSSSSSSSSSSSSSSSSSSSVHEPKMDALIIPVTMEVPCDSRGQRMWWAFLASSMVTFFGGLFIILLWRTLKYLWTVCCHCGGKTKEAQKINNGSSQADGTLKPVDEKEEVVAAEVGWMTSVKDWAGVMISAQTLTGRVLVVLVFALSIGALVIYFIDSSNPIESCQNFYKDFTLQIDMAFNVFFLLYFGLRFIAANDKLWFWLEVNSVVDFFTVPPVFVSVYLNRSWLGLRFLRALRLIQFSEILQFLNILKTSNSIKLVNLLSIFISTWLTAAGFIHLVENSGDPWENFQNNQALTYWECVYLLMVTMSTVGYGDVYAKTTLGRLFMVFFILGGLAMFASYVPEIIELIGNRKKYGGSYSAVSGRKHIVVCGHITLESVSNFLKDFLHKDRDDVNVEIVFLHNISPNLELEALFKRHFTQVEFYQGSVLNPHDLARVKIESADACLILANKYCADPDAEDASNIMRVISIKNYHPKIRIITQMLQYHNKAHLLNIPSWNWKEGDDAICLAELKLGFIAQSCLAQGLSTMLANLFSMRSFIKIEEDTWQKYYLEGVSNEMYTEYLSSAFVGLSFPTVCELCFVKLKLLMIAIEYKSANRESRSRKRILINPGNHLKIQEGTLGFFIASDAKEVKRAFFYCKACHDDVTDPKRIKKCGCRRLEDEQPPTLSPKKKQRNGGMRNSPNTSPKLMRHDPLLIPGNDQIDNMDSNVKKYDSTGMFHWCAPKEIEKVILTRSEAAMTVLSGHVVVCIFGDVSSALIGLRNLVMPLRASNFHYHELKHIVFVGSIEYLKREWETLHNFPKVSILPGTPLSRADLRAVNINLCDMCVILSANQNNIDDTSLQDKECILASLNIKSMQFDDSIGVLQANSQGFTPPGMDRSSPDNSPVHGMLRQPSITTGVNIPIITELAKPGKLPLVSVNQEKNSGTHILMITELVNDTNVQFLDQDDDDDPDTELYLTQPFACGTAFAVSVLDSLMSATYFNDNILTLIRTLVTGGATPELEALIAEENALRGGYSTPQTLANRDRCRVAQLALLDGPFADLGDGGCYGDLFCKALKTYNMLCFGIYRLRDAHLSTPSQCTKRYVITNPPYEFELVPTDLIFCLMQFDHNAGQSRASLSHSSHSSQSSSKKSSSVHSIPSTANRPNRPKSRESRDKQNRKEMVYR

B1: BK channel auxiliary β2 subunit (natural protein)
chain: MFIWTSGRTSSSYRHDEKRNIYQKIRDHDLLDKRKTVTALKAGEDRAILLGLAMMVCSIMMYFLLGITLLRSYMQSVWTEESQCTLLNASITETFNCSFSCGPDCWKLSQYPCLQVYVNLTSSGEKLLLYHTEETIKINQKCSYIPKCGKNFEESMSLVNVVMENFRKYQHFSCYSDPEGNQKSVILTKLYSSNVLFHSLFWPTCMMAGGVAIVAMVKLTQYLSLLCERIQRINR
Take B1: the patch clamp, inside-out patches of HEK293 cells, α:β2 transfection ratio 1:0.2: share of random tests whose currents showed rapid and complete inactivation (called binding rate) in experiment [1] is 100%. Moreover, the patch clamp, inside-out patches of HEK293 cells: share of random tests with inactivation or brief openings (β2 binding ratio) at α:β2 transfection ratios 1:0.2 (about 7%), 1:1, 1:4 and 1:8 in experiment [2] turned out to be 85%.

B2: Δ3-β2 (β2 subunit with the inactivation ball FIW deleted) (natural protein)
chain: MTSGRTSSSYRHDEKRNIYQKIRDHDLLDKRKTVTALKAGEDRAILLGLAMMVCSIMMYFLLGITLLRSYMQSVWTEESQCTLLNASITETFNCSFSCGPDCWKLSQYPCLQVYVNLTSSGEKLLLYHTEETIKINQKCSYIPKCGKNFEESMSLVNVVMENFRKYQHFSCYSDPEGNQKSVILTKLYSSNVLFHSLFWPTCMMAGGVAIVAMVKLTQYLSLLCERIQRINR
In the case of B2, the patch clamp, inside-out patches of HEK293 cells, α:β2 transfection ratio 1:0.2, 10 μM Ca2+: share of random tests with a left shift of V50 to −30 mV from about +25 mV (called binding rate) in experiment [1] amounted to 100%. In experiment [2], the patch clamp, inside-out patches of HEK293 cells, transfection ratio 1:0.2: share of random tests with slow activation (called β2 binding rate) worked out at 100%.
